The values that follow come from patent US20240262912A1 (MERUS N V, published 2024).

Experiment [1] concerns the target T1, Human CLEC12A on cells (HL60, CLEC12A-CHO-K1, primary blood, bone marrow and AML cells) (human, UniProt Q5QGZ9 1-265).
T1 sequence: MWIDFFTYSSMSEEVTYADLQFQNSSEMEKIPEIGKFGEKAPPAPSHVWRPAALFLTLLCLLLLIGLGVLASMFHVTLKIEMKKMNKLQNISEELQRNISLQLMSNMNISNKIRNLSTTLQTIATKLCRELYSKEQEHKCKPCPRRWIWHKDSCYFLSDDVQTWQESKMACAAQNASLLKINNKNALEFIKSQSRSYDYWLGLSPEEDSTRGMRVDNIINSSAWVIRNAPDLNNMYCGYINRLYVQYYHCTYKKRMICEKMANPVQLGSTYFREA
Description: cell-based or functional assay.

For experiment [2], the target named is T2, Recombinant purified CLEC12A-His (Sino Biologicals) (human, UniProt Q5QGZ9 65-265).
T2 construct: Bought protein; 11896-H07H; not shown: His tag
T2 sequence: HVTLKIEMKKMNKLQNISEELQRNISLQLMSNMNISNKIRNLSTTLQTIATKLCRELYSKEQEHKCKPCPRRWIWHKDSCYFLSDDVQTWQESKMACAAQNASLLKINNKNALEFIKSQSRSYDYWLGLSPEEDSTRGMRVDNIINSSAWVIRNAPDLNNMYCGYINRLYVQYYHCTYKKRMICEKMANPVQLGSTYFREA
Put plainly: SPR (Biacore T100); antibody captured on CM5 chip through mouse anti-human IgG, recombinant CLEC12A-His run over the surface. (In general: In SPR one partner is held on a chip, and binding of the other changes the refractive index at the surface.)

Experiment [3] concerns the target T1, Human CLEC12A on cells (HL60, …). Description: cell-based or functional assay. The source holds these as a separate data set.
Experiment [4] has the same target. Put plainly: cell-based or functional assay. The source holds these as a separate data set.

B1: Antibody MF4327×MF5196, full length human IgG1 CLEC12AxCD3 bispecific antibody with silenced Fc effector function (bispecific antibody, V domains shown)
VH 1: QVQLVQSGAEVKKPGASVKVSCKASGYTFTSYYMHWVRQAPGQGLEWMGIINPSGGSTSYAQKFQGRVTMTRDTSTSTVYMELSSLRSEDTAVYYCAKGTTGDWFDYWGQGTLVTVSS
VH 2: QVQLVQSGGGVVQPGRSLRLSCVASGFTFSSYGMHWVRQAPGKGLEWVAAIWYNARKQDYADSVKGRFTISRDNSKNTLYLQMNSLRAEDTAVYYCTRGTGYNWFDPWGQGTLVTVSS
VL: not shown
notes: Full length human IgG1 with a common light chain; The CH3 domains are engineered for heterodimerisation, and changes in the CH2 regions remove Fc effector function; also called CLEC12AxCD3 bispecific IgG; Fcγ receptor-silenced antibody MF4327×MF5196
In the case of B1, in experiment [1], the “CD25 on CD4 T cells, mean EC50 (HL60 cytotoxicity assay)” value was 0.351 µg/mL; the “CD25 on CD8 T cells, mean EC50 (HL60 cytotoxicity assay)” value came to 0.0957 µg/mL; the “CD69 on CD4 T cells, mean EC50 (HL60 cytotoxicity assay)” value was determined as 0.156 µg/mL; the “CD69 on CD8 T cells, mean EC50 (HL60 cytotoxicity assay)” value was found to be 0.0444 µg/mL. The “HL60 cell lysis, mean EC50” value in experiment [1] came out at 0.0682 µg/mL. Besides, in experiment [2], the Kd came to 3 nM. In addition, in experiment [3], the “fold T cell expansion, primary AML sample of patient 10, day 10” value is 25 fold; the “fold T cell expansion, primary AML sample of patient 11, day 10” value was 6 fold; the “fold T cell expansion, primary AML sample of patient 12, day 10” value was found to be 37 fold; the “fold T cell expansion, primary AML sample of patient 13, day 10” value came out at 139 fold. Also, in experiment [3], the “fold T cell expansion, primary AML sample of patient 14, day 10 (1,000 ng/mL)” value is 64 fold; the “fold T cell expansion, primary AML sample of patient 15, day 10 (1,000 ng/mL)” value worked out at 25 fold; the “fold T cell expansion, primary AML sample of patient 16, day 10” value is 15 fold; the “fold T cell expansion, primary AML sample of patient 17, day 10” value was determined as 98 fold. Also, in experiment [3], the “fold T cell expansion, primary AML sample of patient 18, day 10” value was determined as 20 fold; the “fold T cell expansion, primary AML sample of patient 19, day 10” value was found to be 60 fold; the “fold T cell expansion, primary AML sample of patient 20, day 10 (1,000 ng/mL)” value is 157 fold. Besides, the “median fold T cell expansion in primary AML samples, day 10” value in experiment [4] is 48 fold.

The term Kd denotes a measure of binding affinity in units of concentration.
